Source: the DeepSol protein solubility set

Assay: soluble on expression in E. coli; label from the status in PepcDB or PDB records
For “MIESNHVVLWNRCLEVIKDNVPETTYNTWFAPIVPLKYEDKTLIVQIPSQFFYEILEEKFVDLLRKTLYKAIGEGTKLMYNVMVDKTSIPNQTVNLEASNRSTAVTPKSIVGGNKAPSFLKAPAVQDLDPHLNPNYNFENFIEGYSNKLSRSVAEAVAQNPAGTAFNPLFLYGASGVGKTHLANAIGTKIKELYADKRVLYVSAHLFQVQYTDSVRNNTTNDFINFYQTIDVLIIDDIQEFAGVTKTQNTFFHIFNHLHQNGKQLILTSDRAPVLLQGMEERLLTRFKWGMVAELEKPTVELRKNILRNKIHRDGLQFPPEVIDYIAENVNESVRDLEGIVIAIMARSTIFNKEIDLDLAQHIVHGVVHNETKAVTIDDILKVVCKHFDLEASAIHTKSRKREVVQARQIAMYLAKNYTDFSTSKIGKFIGNKDHATVLHACKTVKGQLEVDKSFQAEVQEIESLLKKKALEHHHHHH”, the “soluble on expression in E. coli” value was “soluble”.
With “MGSDKIHHHHHHMPENDFFAGIDAQLDTWEFRTLADAFKPRPPLQYAITGLFTLPSLTIVFGAPGTLKSMLLGSAALHVAGGLPWLGRKVKAFPTMWLDMDNGKRRTDERFEALARHLGLNEGTPFFYISMPTPMFNAGDTGDTEAMVNRMISRGIKLLFIDNLGLISPGADENSDAMVKVMGNLRLLAERTDAAVVIIHHQRKKSKQTQTARTGETLRGHSSIEASLDLALLVEREFDSDIITVHSTKTRDTEVRPFAAEWRYEHKPGTDELETAGFVSAEGENSSETVLEKAIIETVSSNALINQTKLKDDVMKLTGIGRNQVINMIRALEVRKALNVKPGSNNEKLYYIE” the “soluble on expression in E. coli” value was “not soluble”.
For “MSYNFELSYVKGCDSVHVVEHKTSAVYYPRSNGAAERFVDTLKRGIAKIKGEGSVNQQILNKFLISYRNTPHSALNGATPAECHFGRKIRTTMSLLMLTDRVLKVPKLTQYQQNMKHHYDLRNGARAKNFQVNQKVYVQVHQGNKSHWKHGVIRRKFGGVLYEVQVGDRMQKSHVNQIRTRCGDYSREDIFEETIYPLFFSTPGKFTSCSDNKSRSGATGGETNLFDSSGSSVNPRLSSDSFGFVGESGGDEMSRSDDPVVTSTVPSTDLNRGSRITSELKKKESNAVRGQPRGSSSTNNNDSSAPGYASRSHPTTDPSHSVRRSSRIRRVPDRYGSSVEHPLTSTGTPRGSTSTQLGQASTRNGSRYTASGRTPSCQGNRYSSIRGEGVTARRERVRSTWR”, the “soluble on expression in E. coli” value was “not soluble”.
With “VKSNAQIDSVKCFSTMNDEEIVEDSRAGDDRALEYLINKYKGFVRAKARTYFLIGADREDIIQEGMIGLYKAIRDFRKDKLSSFRAFAELCITRQIITAIKTATRQKHIPLNSYVSLNKPIFDEESDRTLMDIISEESINDPEEMVINREEFSGIEAKMGEILSSLECEVLTSYLQGKSYQEIAVELDRHVKSIDNALQRVKRKLEKYLEESRI” the “soluble on expression in E. coli” value was “soluble”.
For “MSLEIKFLSLCILAGVLFVSQVNASANNGKDDVKYAALTQKDLDALPVEKRASVLDELGFIHEYGLSVPMNRERALQYYKQACELGGNYGCYNVKYAYQYGDGVAKDSAQANKYAKKMNLDNLLIEQEYIDKFSQEIYMAKALADTDKSQRAAFISILIHALNNRPESDALFFSRIGFNQEKTFRLATLWSQDGDPQMDYQMGRLTLNDFSGRYADEPYQARPASLKWFRAAAEKGVVEAQSLLGGIYSGGEGDEWGIKPDIQEAQKWYGQAAKQGDSDAQIALGKIYYSGATGRTDYAKALALFTQVENDGTNSRSTMPLSWMYYNGLGTAPDCDKAWSYYKKASRYVGKKVEEGHHHHHH”, the “soluble on expression in E. coli” value was “not soluble”.
With “MEDLIDGIIFAANYLGSTQLLSDKTPSKNVRMMQAQEAVSRIKMAQKLAKSRKKAPEGESQPMTEVDLFILTQRIKVLNADTQETMMDHPLRTISYIADIGNIVVLMARRRIPRSNSQENVEASHPSQDGKRQYKMICHVFESEDAQLIAQSIGQAFSVAYQEFLRANGINP” the “soluble on expression in E. coli” value was “soluble”.
In the case of “MGSDKIHHHHHHMKMLVGKIPSELLAKILEKLKPGDKVIVGPKVGIDATAIDFGDYVLVASTDPITGTEEKIGFYAVNINANDVATFGARPKWFLVTILLPEGSEFNDVITIMDEVREVAEGMGISIVGGHTEVTPGLKKPIVVGTMLGEVEKENLVVPNPRPGDAIILTKGAGIEGTSIIAHEREEELKGVFGSNFVERAKAFINEISIVREALLSREFATAMHDPTEGGIANGLHEMADINGLGFRIFANKVIIREETRKICHFYDLDPLALISSGALLISTPRDHAKFLIERLLSHGIQASIIGEFLAEKKRVIIENGAERPLKRPESDELWKVV”, the “soluble on expression in E. coli” value is reported as “not soluble”.
For “EHNKRVNLANAGRVSSAEGIKKLRASGVKFVWVDQSLSAQQCVFKPVEEPIDIEVGDKTLSVSSKVQRAYRSREVQHKRAKKLIAEAKGLAQKLLNQTFEGKVIQVDEIESWADDMIESVFIDSDALQCVSALRQKDSYLLEHSVNVACLLVSFGKHLGLDKDTLKQLAIGGIIHDVGKIKVDDKILHKPARLTPEEFEHMKLHQVFAGEIIVEVKGLSDVSRDVCLMHHEKLDGTGYPRGLSGDEIPIHGRMSCIVDIYDALTADRCYKKGMSSAEAFKILLSLTPFHLDPDL”, the “soluble on expression in E. coli” value was “not soluble”.
With “GMPHVHVSTDNSLLDIGLIHRTLSQDTDWAKDIPLALVQRAIDHSLCFGGFVDGRQVAFARVISDYATFAYLGDVFVLPEHRGRGYSKALMDAVMAHPDLQGLRRFSLATSDAHGLYARYGFTPPLFPQSLMERYVPGLYST” the “soluble on expression in E. coli” value was “soluble”.
With “GSMAGSVGAAAPVTAANGDDSESETSESDDDSPPRPAAVAVHKREEDEEEDDEFEEVADDPIVMVAGRPFSYSEVSQRPELVAQMTPEEKEAYIAMGQRMFEDLFE” the “soluble on expression in E. coli” value was “soluble”.
For “MSLGKSNVLVTMPVAPTMEVKSFPILDQCVGQVGLNFELSFTGAPPYYYNTKIYKLENGERKLYDAKRYTSEGTRNRFSYSPPKEGNYEIVFDTVSNKLFTEPIKLEPVKEYTFKTSMRVKPSASLKLHHDLKLCLGDHSSVPVALKGQGPFTLTYDIIETFSSKRKTFEIKEIKTNEYVIKTPVFTTGGDYILSLVSIKDSTGCVVGLSQPDAKIQVRRDIPSAAFNFFEPIKEAKIKHGSVTEIPLKLSGEGPFTVKFKHMDYDGNIVKEFENKFQNSYKPALKVSKEGLYQLVDIRDSSCQGNVIYRNSLYKVSFLEKPKFAIQDNHHITKVTENLFSKEEVCQGMEGTVDLALFGSPPFILEYDLMAPNGHISTKKIQVATKYASLKLPNQIPGEYITTIKAIFDGNYGESDIHFREHQSELIIKQTVHPIPDVAFADGGKTLRACAANVDQISFLEPINLKFLQGESPFSITFSVYHESTSRTDQYTIDNIDSENFSFEKLYEGMKLGNHAITIDSVVDANGCVNSLISGPRNQILVSITDAPKIHILDPSTEYCVGDYVAYQLNGVAPFMIKYEFNGIPLKSKERSSQFVRLASEPGIISITSLQDSSSQCIVDFTNPKLKSEFDDEGHHHHHH”, the “soluble on expression in E. coli” value was “soluble”.
In the case of “MGSDKIHHHHHHMNFQRDFNDLLNALLTDWRNQFPDADLSQGSLIYMKSACLASALWGLYKYQEWISKQIFPDTAETKYLEHHAWVRGLSRRSGETDEELLARLLEYIRRPPAGGNKYDYQKWALEIDNVANAWCIPLSQGPGTVDVIIAADETVTGSEIPSSHALTGTTTAITENKLVDGAADFMATGDGGPVRIGDIAVNDDTGGQAVITAVDNATQLTLDTDIFSSIGQSYTLKSLTAQVGEYIDDVRPVTVSIVRILPPAVTLQDVTMTVTGTVNKEAIASAITSLLRSLVPGQTLYLSRLIAIAIQEGATNASISAPAADMSPGPYEMLRPGTITVS”, the “soluble on expression in E. coli” value is reported as “not soluble”.
For “MPSLSEFLRKRRARQRRLQAVPSNNKKKSNNNNIMSSTSSGKSRRAASLSSINNFEHLASVEKAGWLNKWTNYLKGYRQRWFVLDSNATLSYYRNPSEVGHTCRGSINLQEARVHTDKTTSCIVISGQSQTFHVKPQNEMDRQQWTNSLEYMRHKAITRAESEEDEDAQMAKTDSNRSDALILANRQMSGKLCDLRTAANMMNKQGDELMRALNGTVETDKNSLAERADLLKMTTSAVLQAAEEFVELSEQSAKRLNKIVAVEQKEKALLQEQLEALAKQHSSLERAASKCARGAAPVSVYSDQEDDEFHDAEEDLAMPCSNSNGPPATAGVHLTPTKRHIGAGDPSSSTCSDSGAVVVVGAHKGGRQRRTTVPERPNLPINLWSIMKNCIGKELSKIPMPVNFSEPISVLQRVTEDLEYANLLETGAKLSTLEQMCYVAAYAASNYSTTCHRTNKPFNPLLGETFEFDRMDDLGWRSVTEQVSHHPPAAAHHAEGNGWTMYQDFTMTSRFRGKYLSVIPIGFTHVVFPATKSHFSYRKITTTVHNIIVGKLWIDNHGDMEITNHETNEKCLLKFVPYSYFSREQPRKVYGIVRDAEGIPKYVVQGTWDKSIDMLKVSSWNGNHEKPKLEVDETSLKRIWTANPLPKNAEKMHNFTKLAIELNEPEEGVAPTDSRLRPDQRLMENGEWDEANRKKLEIEEKQRVVRRRREAEKELAMKKGDKYEEYEPTWFVRVQDESNGALIHQFKGGYWEAKEQQNWEKCPDIF”, the “soluble on expression in E. coli” value was “not soluble”.
With “DLKYILETKLEEERNHLEELLEKVEEDYEGINYDEVLEALKLFKDNYELPKSKIKRKIRIFLIKENILFLNPQKGTLKPQSYLVWNAIKRML” the “soluble on expression in E. coli” value was “soluble”.
In the case of “MGSDKIHHHHHHMLVVGASGSGKSTFANCINGLIPFKTKGNITGELYINNQDATVSCLHDRSNVVGTVLQDTDGQFIGLTAAEDMAFLLENNCVEQDDMKKNVSYWAEKVGMIEHLNHRPQDLSGGQKQRVSLGGILIHRTPILILDEPLANLDPATGHETLRLLNNIHEETKSTMIIVEHRLEESLDDTFDRVLLFKDGKIIANTTPSDLLKSSKLKEAGIREPLYCTALKYAEVDVESIDNLANLRDVCMSEHVKFKVKKWIDETSANNDNKYKSEPLLELNEVCVQYSDYSNSVLNNVQLNVYRREMLSIVGHNGAGKSTLAKAICGFLDITGNIQFCNRGFNQLSISERSEFVGYVMQNPNHMISEKMIYDEVALGLRARGMKESDIKIRVENVLKICGLYAFRNWPIAALSYGQKKRVTIASVLVLNPEIIILDEPTAGQDFYHYNEIMSFLIELNRQGKTIIMITHDMHLLSEYSSRTVVLSKGQVVADTTPVLILNDKKICEIASLRQTSLFEMAEYIGISEPQKLVQLFINHDRKVRRQ”, the “soluble on expression in E. coli” value is reported as “not soluble”.
In the case of “MLNDGEVTPSRHEILSMVKKHSKSLGKTSLDEQDASDVEMDSNFWHGVFDVYFVRCMESRRRQDDDLLFFVRKLSCKSYGLTENEDAPAPYFVRRWAPKLDELLGESLAEVDWRKSFYLNMIAHTSFTVTVAICSNEALKTYQGSKDTKLSPIYKVVKTVYASPSRVNFHLDSKKEVETTPAYPEICFAVDDFDSTFDAVVLTDKDHCYCVLLNSHDGAAFPSATVKDSSDSNTNADPRTVKDPKVTLFSGFVSYQMVREAYEGGRNRFGSLLSLGHITGKADRLYMRGPGGRGEVEVAVSGVVDQSQVVLGPVSPMSSKKSIDLGSIFRKAASVASVAAKHAIAAATASYDEDEMFPLKCCLMSISLPWDTIAHDLLFKATPPVNME”, the “soluble on expression in E. coli” value is reported as “soluble”.
For “MANKGIVPVKISLTEGDFYTLWAPQWREHGAEWQAFLGSGDDLYVFESPAAVLAYIESGARHDLSDHPKWGAFMAGADDRVVPTDRQEYDLIGVPALLAERPSHTNVSAVARCFAITRSLGDVTATIPVQSFFSSHSILMNTERGGNHFTGDSGLGEWTGIGRIVLTSWNNVIDALDSAITVHTDGNAEAISAAAARIDAATAEAEQRRIAEEKKKKADAEKVDPYDATPWAAAGIDPIKISIDGRTVYTLRTYIEAQPVFLGKYGEIFTFNSGKSLVRWLVEHDDHDLARVSTWEDLMVPVNAGELDITVHPDNVYSFNGLTRDINTSVEAVDTAQMARAYELLADAADWAADDSLNSYFLTNPRMQDYISYMIGSTRVSGYTPTPPFTEHSESWAEMEKMLTKRFSKF”, the “soluble on expression in E. coli” value was “not soluble”.
